Test results reported in article PMC3192050, “Structural Basis for Specific Binding of Human MPP8 Chromodomain to Histone H3 Methylated at Lysine 9” (PLoS ONE, 2011).
One block for each molecule: values may come before it.

Legend:
[1] = tested on: hMpp8 chromodomain mutant, Glu101 mutated to proline; experiment: Histone H3K27 peptide pulldown, hMPP8 chromodomain mutant with Glu101 mutated to proline; assay type: binding, human; details: Fig. S1B
Source text: (§1) It is noteworthy that the sequence motif of H3K27 is similar to H3K9 tail (KAARK^27S versus QTARK^9S). However, methylated histone H3K27 cannot interact with hMPP8 chromodomain. To explain why hMPP8 specifically recognizes methylated H3K9, we built a mutant model that hMPP8 binds to methylated H3K27. We mutated residues Gln5 and Thr6 of the QTARK^9S motif to KA to generate a motif of KAARK^9S, which shared the same amino sequence around the K27 site in histone H3. […] To further validate the hypothesis, hMpp8 chromodomain mutants were designed to rescue the binding ability to H3K27me3. Based on our structures, residues Lys100, Glu101 and Val102 were mutated to proline, respectively, to generate enough space where the side chain of Lys5 can insert.
(§2) Supplementary file pone.0025104.s001.tif: Figure S1 hMPP8 specifically recognizes methylated H3K9 rather than H3K27. (A) A mutant structure model for hMPP8 binds to KAARK(me3)S histone motif. Gln5 and Thr6 of the QTARK^9S motif were mutated to KA in this model. (B) Histone H3K27 peptide pulldowns with proteins of wild type hMpp8 chromodomain and indicated mutants, respectively. […] Molecular mass was measured by size exclusion. (F) Binding affinity of hMPP8 chromodomain to H3K4me3 (left panel, measured by ITC method) and H3K27me3 peptide (right panel, measured by SPR method). […]

[2] = tested on: hMpp8 chromodomain mutant, Lys100 mutated to proline; experiment: Histone H3K27 peptide pulldown, hMPP8 chromodomain mutant with Lys100 mutated to proline; assay type: binding, human; details: Fig. S1B
Source text: as §1, §2

hMPP8 chromodomain = molecular target: T1, hMPP8 chromodomain (Homo sapiens, UniProt Q99549); experiment: Surface plasmon resonance (SPR) binding of histone peptides to hMPP8 chromodomain; details: BIAcore3000, 14°C, synthetic peptide residues 19 to 33, 150 mM NaCl, 20 mM Tris, pH 8.0, 1 mM DTT, Fig. S1F right panel
T1 construct: The chromodomain of human MPP8 (residue 56–116) was inserted into a pET28a-MHL vector; His-tag (cleaved yes); made in house; host or cells: E. coli BL21 (DE3) Codon plus RIL
T1 sequence (Q99549 56-116): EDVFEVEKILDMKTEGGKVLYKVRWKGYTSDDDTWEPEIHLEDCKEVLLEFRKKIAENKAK
Procedure: The binding affinity of hMPP8 chromodomain and histone peptides were determined at 14°C using BIAcore3000 instruments. The biotinylated peptides were immobilized on a streptavidin-coated biosensor chip (SA-Chip). All experiments were carried out in the continuous-follow buffer (150 mM NaCl, 20 mM Tris, pH 8.0, 1 mM DTT). The injected protein sample was flowed for 3 min over the peptide coated SA-Chips at a follow rate of 30 ml/min and the change of response unit (RU) was recorded. Protein dissociation was monitored for 3 min by following the continuous-follow buffer at a follow rate of 30 ml/min over the SA-Chips. The KD was determined by global nonlinear regression fitting of the association and dissociation curves according to the Langmuir binding isotherm model.

[3] = molecular target: human MPP8 (M-phase phosphoprotein 8) chromodomain (human) (UniProt Q99549); experiment: SEC; size exclusion of hMPP8 chromodomain in the presence or in the absence of H3K9me3 peptide
[4] = molecular target: human MPP8 (M-phase phosphoprotein 8) chromodomain (human) (UniProt Q99549); experiment: SEC; gel filtration of hMPP8 chromodomain; column buffer 20 mM Tris (pH 8.0), 400 mM NaCl
[5] = Size exclusion chromatography, oligomerization state in solution; assay type: physicochemical; details: 20 mM Tris (pH 8.0), 400 mM NaCl, Fig. 1D
Source text: Figure 1 Overall structure of hMPP8 chromodomain. (A) Sequence alignment of chromodomains of human MPP8, Drosophila HP1 and Drosophila Polycomb. Secondary structural elements (arrows for β strands and rectangles for α helices) are indicated, η represent 3_10 helix. Methylated H3K9 binding residues are marked by stars. Residues involved in dimerization of human Mpp8 and Drosophila Polycomb are marked by diamonds and triangles, respectively. The alignment was created with Espript (http://espript.ibcp.fr/Espript/Espript). (B) Cartoon representation of the crystal structure of hMPP8 chromodomain. The two subunits of the homodimer are colored in cyan and green, respectively, and the secondary structure regions in both proteins are marked. (C) Interactions between the two subunits of the hMPP8 chromodomain homodimer. The dimer interface is formed by strand β2 through an antiparallel arrangement. (D) Gel filtration of hMPP8 chromodomain (left panel). The column buffer was 20 mM Tris (pH 8.0), 400 mM NaCl. The molecular weight of hMPP8 chromodomain monomer was measured using tricine-SDS-PAGE (right panel). TEXT PRINTED IN THE PICTURE: (D) no label printed: 100.09 ml (13.6 kDa)
To determine the oligomerization state of hMPP8 chromodomain in solution, size exclusion experiment was performed. […] The molecular weight of hMPP8 chromodomain monomer is about 8.0 kD. […]

- binding in peptide pulldown [1]: able to bind H3K27me3 peptide weakly
- binding in peptide pulldown [2]: able to bind H3K27me3 peptide weakly
- binding (SPR) (hMPP8 chromodomain): does not exhibit detectable binding
Molecule: H3K27me3: synthetic H3K27me3 (residues 19 to 33) peptide (QLATKAARKSAPATG; K27 trimethylation; UniProt P68431 20-34, looked up, fragment)

- stoichiometry N [3]: 2
- stoichiometry N [4]: 2
Molecule: human MPP8 (M-phase phosphoprotein 8) chromodomain (from UniProt Q99549 56-116) (domain or fragment)

B1: hMPP8 chromodomain: recombinant chromodomain of human MPP8 (residue 56–116), expressed in BL21 (DE3) Codon plus RIL (protein, UniProt Q99549 56-116, looked up, fragment)
chain: EDVFEVEKILDMKTEGGKVLYKVRWKGYTSDDDTWEPEIHLEDCKEVLLEFRKKIAENKAK
modifications: chromodomain
notes: recombinant chromodomain of human MPP8 (residue 56–116), expressed in BL21 (DE3) Codon plus RIL
- oligomerization state in solution ([5]; free form): homodimer
- apparent molecular weight in solution ([5]; monomer about 8.0 kD): 13.6 kD
